Experiments:
[1] = system: AncSZ; test: phosphorylation enrichment, bacterial display (enrichment ratio); higher = better substrate or ligand; peptides without Tyr show the background
[2] = molecular target: EPHB1 (UniProt P54762); test: as above
[3] = molecular target: EPHB2 (UniProt P29323); test: as above
[4] = molecular target: FGFR1 (UniProt P11362); test: as above
[5] = molecular target: FGFR3 (UniProt P22607); test: as above
[6] = system: Fer (mouse); test: as above
[7] = molecular target: Fes (UniProt P07332); test: as above
[8] = molecular target: Fyn (UniProt P06241); test: as above
[9] = molecular target: Hck (UniProt P08631); test: as above
Chain of Hck (P08631 whole entry, looked up): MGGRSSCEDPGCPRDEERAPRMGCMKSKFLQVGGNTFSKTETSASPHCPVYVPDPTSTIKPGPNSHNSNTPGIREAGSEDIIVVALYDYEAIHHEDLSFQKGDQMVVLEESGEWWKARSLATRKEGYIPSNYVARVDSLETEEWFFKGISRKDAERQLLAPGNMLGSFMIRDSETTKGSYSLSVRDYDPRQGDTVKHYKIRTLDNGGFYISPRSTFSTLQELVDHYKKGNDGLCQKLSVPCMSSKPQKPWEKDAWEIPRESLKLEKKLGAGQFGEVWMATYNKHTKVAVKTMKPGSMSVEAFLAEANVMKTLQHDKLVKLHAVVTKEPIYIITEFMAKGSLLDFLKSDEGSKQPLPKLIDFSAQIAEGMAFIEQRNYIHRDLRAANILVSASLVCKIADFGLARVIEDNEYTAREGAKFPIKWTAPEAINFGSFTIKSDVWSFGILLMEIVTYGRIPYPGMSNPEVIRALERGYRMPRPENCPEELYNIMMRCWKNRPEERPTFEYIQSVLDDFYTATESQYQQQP

[10] = molecular target: Jak2 (UniProt O60674); test: as above
Chain of Jak2 (O60674 whole entry, looked up): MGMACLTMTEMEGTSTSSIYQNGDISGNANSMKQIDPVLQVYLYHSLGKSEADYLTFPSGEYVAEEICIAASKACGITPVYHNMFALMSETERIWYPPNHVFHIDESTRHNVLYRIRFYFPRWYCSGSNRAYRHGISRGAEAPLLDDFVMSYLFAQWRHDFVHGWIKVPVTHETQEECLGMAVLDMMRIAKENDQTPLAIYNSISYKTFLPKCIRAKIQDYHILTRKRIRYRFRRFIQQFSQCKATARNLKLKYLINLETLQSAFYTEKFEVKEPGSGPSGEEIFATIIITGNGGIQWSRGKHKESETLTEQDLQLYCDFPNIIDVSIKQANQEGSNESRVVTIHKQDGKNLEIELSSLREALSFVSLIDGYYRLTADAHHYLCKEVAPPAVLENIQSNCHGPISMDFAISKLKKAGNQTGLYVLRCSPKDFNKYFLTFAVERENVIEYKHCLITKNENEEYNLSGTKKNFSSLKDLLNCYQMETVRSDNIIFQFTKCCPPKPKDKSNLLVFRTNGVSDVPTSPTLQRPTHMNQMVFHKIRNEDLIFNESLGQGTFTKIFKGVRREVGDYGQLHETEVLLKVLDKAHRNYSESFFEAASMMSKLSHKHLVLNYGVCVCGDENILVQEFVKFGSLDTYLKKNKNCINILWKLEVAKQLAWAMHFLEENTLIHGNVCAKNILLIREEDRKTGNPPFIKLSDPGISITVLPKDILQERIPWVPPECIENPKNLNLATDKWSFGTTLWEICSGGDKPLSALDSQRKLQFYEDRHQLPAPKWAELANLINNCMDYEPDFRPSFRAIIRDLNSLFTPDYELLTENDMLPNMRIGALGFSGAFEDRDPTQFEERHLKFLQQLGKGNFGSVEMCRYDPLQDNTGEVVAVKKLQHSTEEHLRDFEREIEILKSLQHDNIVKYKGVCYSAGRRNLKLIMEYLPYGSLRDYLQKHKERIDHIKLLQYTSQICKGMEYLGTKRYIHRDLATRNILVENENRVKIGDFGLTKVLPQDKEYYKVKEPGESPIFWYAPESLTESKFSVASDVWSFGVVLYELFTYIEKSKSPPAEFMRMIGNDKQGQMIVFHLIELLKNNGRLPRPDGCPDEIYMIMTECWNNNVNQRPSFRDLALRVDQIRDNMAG

[11] = molecular target: MERTK (UniProt Q12866); test: as above
Chain of MERTK (Q12866 whole entry, looked up): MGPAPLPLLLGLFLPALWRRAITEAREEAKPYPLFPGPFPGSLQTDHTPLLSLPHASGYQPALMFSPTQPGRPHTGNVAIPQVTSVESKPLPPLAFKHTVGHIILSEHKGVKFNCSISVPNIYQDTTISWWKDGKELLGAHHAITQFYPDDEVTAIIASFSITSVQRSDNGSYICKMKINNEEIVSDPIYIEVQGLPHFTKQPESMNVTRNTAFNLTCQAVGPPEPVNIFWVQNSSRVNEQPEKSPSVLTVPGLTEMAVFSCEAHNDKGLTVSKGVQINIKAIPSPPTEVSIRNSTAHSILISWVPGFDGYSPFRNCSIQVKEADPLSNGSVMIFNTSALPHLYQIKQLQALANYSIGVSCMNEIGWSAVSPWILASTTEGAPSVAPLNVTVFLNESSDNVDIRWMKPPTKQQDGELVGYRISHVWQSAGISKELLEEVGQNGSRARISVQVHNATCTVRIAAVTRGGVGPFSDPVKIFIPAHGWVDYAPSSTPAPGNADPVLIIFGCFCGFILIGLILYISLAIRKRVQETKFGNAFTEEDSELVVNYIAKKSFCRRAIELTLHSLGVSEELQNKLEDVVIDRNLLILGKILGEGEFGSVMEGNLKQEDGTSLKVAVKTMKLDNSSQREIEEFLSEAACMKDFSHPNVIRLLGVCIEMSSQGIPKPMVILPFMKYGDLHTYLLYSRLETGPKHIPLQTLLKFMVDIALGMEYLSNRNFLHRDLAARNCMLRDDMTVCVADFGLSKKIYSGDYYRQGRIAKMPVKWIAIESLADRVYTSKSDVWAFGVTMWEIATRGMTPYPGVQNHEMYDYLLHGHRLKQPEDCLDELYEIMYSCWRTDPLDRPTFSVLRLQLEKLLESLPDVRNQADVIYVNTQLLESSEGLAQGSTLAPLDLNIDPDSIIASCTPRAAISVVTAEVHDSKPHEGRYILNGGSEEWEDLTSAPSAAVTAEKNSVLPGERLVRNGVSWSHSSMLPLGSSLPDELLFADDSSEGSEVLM

[12] = system: c-Abl (mouse); test: as above
[13] = system: c-Src; test: as above
[14] = molecular target: Grb2 SH2 (UniProt P62993); test: SH2 binding enrichment of the phosphorylated peptide, bacterial display (enrichment ratio); higher = better substrate or ligand; peptides without Tyr show the background
Chain of Grb2 SH2 (P62993 whole entry, looked up): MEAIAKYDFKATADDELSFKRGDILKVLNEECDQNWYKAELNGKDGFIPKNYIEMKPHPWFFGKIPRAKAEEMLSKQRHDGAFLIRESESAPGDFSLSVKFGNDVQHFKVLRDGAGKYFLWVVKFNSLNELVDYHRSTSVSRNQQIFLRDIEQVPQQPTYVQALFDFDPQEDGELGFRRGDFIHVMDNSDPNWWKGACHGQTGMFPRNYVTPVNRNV

[15] = molecular target: SHP2-C SH2; test: as above
[16] = molecular target: c-Src SH2; test: as above
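For SH2 binding enrichment of the phosphorylated peptide, bacterial display in this document: peptide library displayed on the E. coli surface as eCPX fusions, selected cells deep-sequenced, score is each peptide's frequency after selection divided by its frequency in the input.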
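For phosphorylation enrichment, bacterial display in this document: 11-residue human phosphosite peptides and single-mutation variants displayed on the E. coli surface, counted by deep sequencing, each peptide's frequency after selection divided by its frequency in the unselected input library; frequency after pTyr selection over input frequency; kinase dosed for 20-30% of maximal phosphorylation in three min.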

Chain of EPHB2 (P29323 whole entry, looked up): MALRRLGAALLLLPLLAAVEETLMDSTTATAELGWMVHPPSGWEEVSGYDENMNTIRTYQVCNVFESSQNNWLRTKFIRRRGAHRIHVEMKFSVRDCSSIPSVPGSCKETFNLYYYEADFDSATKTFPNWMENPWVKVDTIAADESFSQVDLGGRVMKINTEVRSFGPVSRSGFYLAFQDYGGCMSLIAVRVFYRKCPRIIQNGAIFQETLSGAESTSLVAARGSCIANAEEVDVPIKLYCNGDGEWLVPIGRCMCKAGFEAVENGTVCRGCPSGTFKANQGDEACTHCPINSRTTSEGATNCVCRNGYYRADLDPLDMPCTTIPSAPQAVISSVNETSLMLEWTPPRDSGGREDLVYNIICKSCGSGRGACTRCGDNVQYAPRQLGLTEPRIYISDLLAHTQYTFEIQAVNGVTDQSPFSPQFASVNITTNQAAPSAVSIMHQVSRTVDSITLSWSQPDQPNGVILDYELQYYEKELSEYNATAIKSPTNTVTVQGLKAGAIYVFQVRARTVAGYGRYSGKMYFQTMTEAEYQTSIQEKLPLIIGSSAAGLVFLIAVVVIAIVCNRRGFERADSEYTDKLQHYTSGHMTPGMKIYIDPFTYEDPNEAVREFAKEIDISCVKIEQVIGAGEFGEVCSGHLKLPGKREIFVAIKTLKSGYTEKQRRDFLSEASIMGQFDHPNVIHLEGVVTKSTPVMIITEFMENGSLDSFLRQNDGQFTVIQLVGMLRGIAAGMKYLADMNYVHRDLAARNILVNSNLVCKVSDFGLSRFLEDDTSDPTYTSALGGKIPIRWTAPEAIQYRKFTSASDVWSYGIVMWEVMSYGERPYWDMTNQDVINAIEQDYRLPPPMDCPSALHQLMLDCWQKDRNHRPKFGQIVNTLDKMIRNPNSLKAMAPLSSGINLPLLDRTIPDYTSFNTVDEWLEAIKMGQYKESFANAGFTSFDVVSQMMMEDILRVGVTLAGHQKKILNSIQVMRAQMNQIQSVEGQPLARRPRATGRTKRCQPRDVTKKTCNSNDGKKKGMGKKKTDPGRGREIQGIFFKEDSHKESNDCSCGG
Chain of FGFR1 (P11362 whole entry, looked up): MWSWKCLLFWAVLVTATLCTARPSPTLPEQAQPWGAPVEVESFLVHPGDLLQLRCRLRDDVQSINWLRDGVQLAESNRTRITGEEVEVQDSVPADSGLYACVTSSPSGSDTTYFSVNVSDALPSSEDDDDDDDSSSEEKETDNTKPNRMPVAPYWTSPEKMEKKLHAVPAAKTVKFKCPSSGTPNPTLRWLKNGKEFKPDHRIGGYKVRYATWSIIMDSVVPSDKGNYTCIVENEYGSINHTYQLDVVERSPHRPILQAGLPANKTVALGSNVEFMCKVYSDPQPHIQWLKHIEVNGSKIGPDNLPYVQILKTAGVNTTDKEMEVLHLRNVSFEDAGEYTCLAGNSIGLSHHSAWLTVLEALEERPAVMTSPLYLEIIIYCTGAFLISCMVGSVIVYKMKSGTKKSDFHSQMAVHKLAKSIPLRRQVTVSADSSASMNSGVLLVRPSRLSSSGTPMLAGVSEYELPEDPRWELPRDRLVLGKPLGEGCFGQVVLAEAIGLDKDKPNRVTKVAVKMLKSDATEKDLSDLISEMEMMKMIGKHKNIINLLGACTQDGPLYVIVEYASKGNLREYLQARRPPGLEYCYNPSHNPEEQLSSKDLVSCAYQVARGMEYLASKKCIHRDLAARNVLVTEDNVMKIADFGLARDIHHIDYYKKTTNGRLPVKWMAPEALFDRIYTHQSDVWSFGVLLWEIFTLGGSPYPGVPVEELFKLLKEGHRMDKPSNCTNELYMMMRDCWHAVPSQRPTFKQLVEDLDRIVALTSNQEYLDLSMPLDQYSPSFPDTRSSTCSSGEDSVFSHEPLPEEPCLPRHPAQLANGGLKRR

Sequence	phosphorylation enrichment [1]	phosphorylation enrichment [2]	phosphorylation enrichment [3]	phosphorylation enrichment [4]	phosphorylation enrichment [5]	phosphorylation enrichment [6]	phosphorylation enrichment [7]	phosphorylation enrichment [8]	phosphorylation enrichment [9]	phosphorylation enrichment [10]	phosphorylation enrichment [11]	phosphorylation enrichment [12]	phosphorylation enrichment [13]	SH2 binding enrichment [14]	SH2 binding enrichment [15]	SH2 binding enrichment [16]
FGVVGYLAIMF [RNF175_Y155]	1.04	0.795	0.579	0.474	0.819	0.484	1.44	0.519	0.655	1.45	0.532	1.37	0.443	1.11	0.872	0.653
FHLLPYTVRAM [PARS2_Y93_YF]	0.8	0.581	0.633	0.564	0.551	0.514	0.971	0.446	0.501	0.691	0.438	0.546	0.711	1.11	1.57	1.34
FISVGYVDDTL [HLA-B_Y51_Q56L]	1.12	0.738	0.736	0.572	0.801	0.652	1.21	0.486	0.485	1.03	0.436	0.772	0.557	1.05	0.896	0.728
FKDYFYCWNTF [AICDA_Y146]	2.04	4.05	2.87	8.79	7.02	1.46	1.34	0.652	0.557	3.71	2.8	1.22	1.41	0.878	0.662	0.474
FLRKEYGGVNV [CBR3_Y81_L84V]	0.644	0.391	0.4	0.416	0.495	0.475	0.916	0.452	0.425	0.598	0.471	0.612	0.578	0.984	0.698	0.458
FNNPAYFVLEG [INPPL1_Y986_YF]	1.25	0.621	0.588	7.65	5.18	0.501	1.09	0.679	0.578	4.57	3.7	0.816	0.875	1.01	0.953	2.06
FPKDVYVDSKD [NDUFAF4_Y69_L65P]	0.868	0.38	0.36	0.588	0.59	0.367	0.839	0.409	0.444	0.769	0.377	0.543	0.416	1.13	0.821	0.542
FPRAWCRRSIA [KIAA1109_Y4272_Y4272C]	0.908	0.519	0.484	0.48	0.441	0.455	0.686	0.557	0.466	0.588	0.562	0.641	0.523	0.759	0.4	0.464
FQASFYRRGDR [LTK_Y677_R673Q_YF]	0.717	0.443	0.486	0.532	0.523	0.495	0.688	0.55	0.501	0.441	0.511	0.647	0.525	0.411	0.38	0.295
FRDMDYRSFPH [RBM10_Y41_R46H_YF]	0.55	0.442	0.388	0.577	0.449	0.407	0.698	0.419	0.314	0.667	0.385	0.549	0.436	0.911	0.787	0.565
FRPHLYGTPSR [ADGRE2_Y670_S665F]	0.682	0.481	0.458	0.747	0.511	0.945	0.842	0.546	0.948	0.611	0.513	0.718	0.572	1.98	1.65	1.77
FRSSLYSLMET [MYO5C_Y633_L634S]	1.12	4.17	1.84	0.898	0.947	9.51	1.16	4.25	4.03	0.77	12.4	0.629	4.03	0.672	0.564	1.24
FSGIFYKPESL [L2HGDH_Y103_H98Y_YF]	0.968	0.5	0.5	0.436	0.673	0.471	1.03	0.438	0.393	0.935	0.431	0.81	0.611	1.17	1.27	0.56
FSGQVYRQRRK [TH_Y230_D227G]	0.855	0.604	0.772	0.546	0.64	0.582	0.697	0.774	0.718	0.769	1	0.789	1.13	0.675	0.472	0.244
FSPPFYHRNCM [HGD_Y334_R330S_YF]	0.931	0.483	0.545	0.513	0.632	0.465	0.89	0.377	0.457	0.971	0.535	0.767	0.623	0.981	0.818	0.633
FTHSDYQFGQR [PKP2_Y166_S169G_YF]	0.697	0.389	0.471	0.465	0.474	0.453	0.687	0.443	0.518	0.583	0.469	0.553	0.457	1	1.05	0.626

From the supplement of paper PMC10065799, “High-throughput profiling of sequence recognition by tyrosine kinases and SH2 domains using bacterial peptide display” (eLife, 2023)
